Assay [1] deals with human zB7H6 (full-length, on cells) (human) (UniProt Q68D85). In words: competition flow cytometry, zB7H6-transfected P815 cells, 100-fold mass excess of isotype control antibody against NKp30/mFc2-biotin (no competition).
Assay [2] has the same target. In words: competition flow cytometry, zB7H6-transfected P815 cells, 100-fold mass excess of isotype control antibody (no competition).

Chain of human zB7H6 (full-length, on cells) (human) (Q68D85 25-454): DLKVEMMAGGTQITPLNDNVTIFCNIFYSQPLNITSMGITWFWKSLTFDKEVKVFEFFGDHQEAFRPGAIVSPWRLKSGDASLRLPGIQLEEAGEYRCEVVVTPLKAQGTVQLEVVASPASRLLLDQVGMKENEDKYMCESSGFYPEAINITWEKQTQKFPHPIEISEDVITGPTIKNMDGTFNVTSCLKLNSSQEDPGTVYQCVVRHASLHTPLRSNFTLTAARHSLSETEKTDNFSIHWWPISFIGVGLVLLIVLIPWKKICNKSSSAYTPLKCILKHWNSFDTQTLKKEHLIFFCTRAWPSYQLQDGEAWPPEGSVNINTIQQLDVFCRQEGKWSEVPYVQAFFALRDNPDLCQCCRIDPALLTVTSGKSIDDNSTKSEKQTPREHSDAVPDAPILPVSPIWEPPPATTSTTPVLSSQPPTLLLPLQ

For the substance isotype control antibody, the MFI of NKp30/mFc2-biotin in the presence of the competitor in assay [1] was 775. For the same substance, the MFI of anti-zB7H6-A647 in the presence of the competitor in assay [2] is 500.

Values taken from patent publication US20180258172A1.
